In US20040086863A1:

Assays:
[1] = molecular target: IRS-1, endogenous in COS cells; assay: cell-based or functional assay
[2] = molecular target: IRS-1, endogenous in Rat-1 fibroblasts and L6GLUT4myc myoblasts (UniProt P35570); assay: cell-based or functional assay
Chain of IRS-1, endogenous in Rat-1 fibroblasts and L6GLUT4myc myoblasts (P35570 whole entry): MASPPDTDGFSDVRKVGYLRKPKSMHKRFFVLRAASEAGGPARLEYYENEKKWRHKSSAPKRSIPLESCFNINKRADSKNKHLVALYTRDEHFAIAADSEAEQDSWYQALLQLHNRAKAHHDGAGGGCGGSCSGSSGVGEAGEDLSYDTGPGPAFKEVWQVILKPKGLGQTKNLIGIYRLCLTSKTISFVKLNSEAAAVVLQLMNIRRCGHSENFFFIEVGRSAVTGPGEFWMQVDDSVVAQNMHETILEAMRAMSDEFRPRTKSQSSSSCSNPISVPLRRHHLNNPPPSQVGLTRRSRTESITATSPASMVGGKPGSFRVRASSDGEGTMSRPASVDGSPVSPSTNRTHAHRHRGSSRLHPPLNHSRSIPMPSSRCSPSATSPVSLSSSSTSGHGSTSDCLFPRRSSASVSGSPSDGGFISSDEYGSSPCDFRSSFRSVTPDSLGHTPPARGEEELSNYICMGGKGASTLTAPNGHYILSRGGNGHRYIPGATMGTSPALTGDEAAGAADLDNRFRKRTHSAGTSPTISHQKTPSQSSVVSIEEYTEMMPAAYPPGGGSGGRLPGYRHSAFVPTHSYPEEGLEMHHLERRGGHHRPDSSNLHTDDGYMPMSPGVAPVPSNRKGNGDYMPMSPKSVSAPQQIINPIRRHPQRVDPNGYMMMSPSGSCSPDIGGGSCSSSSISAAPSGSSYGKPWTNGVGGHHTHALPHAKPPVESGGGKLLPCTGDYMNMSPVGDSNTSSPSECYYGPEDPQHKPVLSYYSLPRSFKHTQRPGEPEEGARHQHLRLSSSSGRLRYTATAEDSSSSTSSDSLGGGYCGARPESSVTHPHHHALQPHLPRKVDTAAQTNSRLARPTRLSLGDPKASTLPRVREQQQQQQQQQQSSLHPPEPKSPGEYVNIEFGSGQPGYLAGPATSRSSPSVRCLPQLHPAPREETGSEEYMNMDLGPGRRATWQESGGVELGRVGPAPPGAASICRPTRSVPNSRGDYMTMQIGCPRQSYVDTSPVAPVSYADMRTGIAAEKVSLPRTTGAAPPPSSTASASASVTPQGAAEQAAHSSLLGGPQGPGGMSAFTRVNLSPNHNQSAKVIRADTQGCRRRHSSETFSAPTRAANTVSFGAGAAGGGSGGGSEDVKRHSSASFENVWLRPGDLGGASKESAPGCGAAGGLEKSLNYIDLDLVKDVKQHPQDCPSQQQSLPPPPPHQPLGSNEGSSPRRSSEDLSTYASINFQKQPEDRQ

Chain of IRS-1, endogenous in COS cells (Q28224 whole entry): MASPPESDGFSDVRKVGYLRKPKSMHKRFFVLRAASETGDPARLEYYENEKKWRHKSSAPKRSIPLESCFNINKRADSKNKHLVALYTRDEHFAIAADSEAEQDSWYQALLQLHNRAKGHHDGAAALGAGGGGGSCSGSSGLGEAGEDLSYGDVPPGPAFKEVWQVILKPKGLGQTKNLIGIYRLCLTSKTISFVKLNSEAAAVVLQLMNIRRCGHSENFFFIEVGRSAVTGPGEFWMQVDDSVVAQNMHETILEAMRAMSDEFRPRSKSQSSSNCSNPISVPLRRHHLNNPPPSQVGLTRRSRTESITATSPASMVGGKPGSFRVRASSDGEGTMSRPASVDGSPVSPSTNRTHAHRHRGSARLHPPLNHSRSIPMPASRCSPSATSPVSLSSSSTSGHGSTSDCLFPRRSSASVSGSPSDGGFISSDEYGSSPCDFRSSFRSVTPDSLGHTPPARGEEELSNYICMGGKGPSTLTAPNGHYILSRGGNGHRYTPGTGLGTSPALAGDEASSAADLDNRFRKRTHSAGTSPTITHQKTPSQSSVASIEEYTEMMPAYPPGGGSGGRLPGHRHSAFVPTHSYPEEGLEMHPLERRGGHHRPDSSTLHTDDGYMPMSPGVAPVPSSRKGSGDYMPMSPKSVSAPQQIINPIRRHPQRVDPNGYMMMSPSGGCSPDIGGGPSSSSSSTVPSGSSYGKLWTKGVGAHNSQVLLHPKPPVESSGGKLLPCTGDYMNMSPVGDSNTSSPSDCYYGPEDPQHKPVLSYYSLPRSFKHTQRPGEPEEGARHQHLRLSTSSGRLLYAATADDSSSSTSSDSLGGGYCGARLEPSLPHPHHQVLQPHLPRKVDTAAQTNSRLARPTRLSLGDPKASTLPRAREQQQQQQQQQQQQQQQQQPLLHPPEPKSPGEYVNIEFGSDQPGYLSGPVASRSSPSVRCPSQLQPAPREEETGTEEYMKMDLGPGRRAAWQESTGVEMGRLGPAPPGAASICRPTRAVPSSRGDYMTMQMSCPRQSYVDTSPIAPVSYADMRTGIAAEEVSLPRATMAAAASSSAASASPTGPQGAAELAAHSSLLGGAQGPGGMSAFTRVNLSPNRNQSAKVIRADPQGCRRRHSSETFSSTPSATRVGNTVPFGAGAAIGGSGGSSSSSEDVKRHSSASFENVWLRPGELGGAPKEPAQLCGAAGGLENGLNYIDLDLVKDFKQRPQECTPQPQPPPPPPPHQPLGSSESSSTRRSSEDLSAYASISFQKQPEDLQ

HA-tagged dominant-negative PHIP (DN-PHIP), PHIP PBR region alone (residues 8-209) (from UniProt Q8VDD9 927-1128)
IRS-1 tyrosine phosphorylation in insulin-treated cells [1]: > 5 fold
insulin-dependent GLUT4myc membrane translocation in L6GLUT4myc myoblasts [2]: > 90%
